Data: FireProtDB (doi:10.1074/jbc.m005861200)

B1: Cytochrome c-551, P00099 (parent)
chain: MKPYALLSLLATGTLLAQGAWAEDPEVLFKNKGCVACHAIDTKMVGPAYKDVAAKFAGQAGAEAELAQRIKNGSQGVWGPIPMPPNAVSDDEAQTLAKWVLSQK

Variants of: B1
Conditions: Pseudomonas aeruginosa (strain ATCC 15692 / DSM 22644 / CIP 104116 / JCM 14847 / LMG 12228 / 1C / PRS 101 / PAO1); pH 5; 25 °C; GdnHCl; DSC; Unknown; reversible: yes; structure 451C; whole UniProt chain shown

Variant | denaturant midpoint (higher = more stable)
F29A V35M F56Y E65Y V100I | 4.39 M

Same assay, conditions: Pseudomonas aeruginosa (strain ATCC 15692 / DSM 22644 / CIP 104116 / JCM 14847 / LMG 12228 / 1C / PRS 101 / PAO1); pH 5; 47.3 °C; Thermal; DSC; Unknown; reversible: yes; structure 451C; whole UniProt chain shown

Variant | Tm | change of melting temperature, mutant - wild type (higher = more stable) | heat capacity change of unfolding
F29A V35M F56Y E65Y V100I | 80.2 °C | 32.9 °C | 1.07 kcal/mol/K

Same assay, conditions: Pseudomonas aeruginosa (strain ATCC 15692 / DSM 22644 / CIP 104116 / JCM 14847 / LMG 12228 / 1C / PRS 101 / PAO1); pH 5; Thermal; DSC; Unknown; reversible: yes; structure 451C; whole UniProt chain shown

Variant | Tm | change of melting temperature, mutant - wild type (higher = more stable) | heat capacity change of unfolding | unfolding enthalpy (calorimetric)
F29A V35M F56Y E65Y V100I | 80.2 °C | 32.9 °C | 1.07 kcal/mol/K | 46 kcal/mol
